Assay [1] deals with T1, Human recombinant IL-12 (human, UniProt P29459 23-219).
T1 sequence 1: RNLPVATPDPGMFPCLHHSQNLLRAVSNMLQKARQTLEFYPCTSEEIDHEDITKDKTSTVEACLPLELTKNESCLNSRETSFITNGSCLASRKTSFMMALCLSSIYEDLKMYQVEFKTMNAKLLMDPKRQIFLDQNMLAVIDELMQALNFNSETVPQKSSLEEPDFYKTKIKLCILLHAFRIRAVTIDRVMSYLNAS
T1 sequence 2: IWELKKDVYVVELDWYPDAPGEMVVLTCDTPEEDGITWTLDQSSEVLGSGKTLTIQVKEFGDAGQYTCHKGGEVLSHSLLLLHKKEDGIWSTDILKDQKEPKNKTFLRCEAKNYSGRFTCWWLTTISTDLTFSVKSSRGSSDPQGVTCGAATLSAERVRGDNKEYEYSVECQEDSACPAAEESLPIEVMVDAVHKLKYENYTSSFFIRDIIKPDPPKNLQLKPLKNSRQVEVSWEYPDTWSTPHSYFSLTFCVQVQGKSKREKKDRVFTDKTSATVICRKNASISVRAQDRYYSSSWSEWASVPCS
Nature of the assay: cell-based or functional assay.

Assay [2] concerns the target T2, Human IL-23 (human, UniProt Q9NPF7 20-189; P29460 23-328).
T2 sequence 1: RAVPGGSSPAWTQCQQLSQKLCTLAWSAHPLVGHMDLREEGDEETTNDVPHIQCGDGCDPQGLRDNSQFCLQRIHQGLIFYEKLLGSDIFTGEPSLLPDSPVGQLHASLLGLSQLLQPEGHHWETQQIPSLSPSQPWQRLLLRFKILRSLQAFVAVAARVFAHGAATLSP
T2 sequence 2: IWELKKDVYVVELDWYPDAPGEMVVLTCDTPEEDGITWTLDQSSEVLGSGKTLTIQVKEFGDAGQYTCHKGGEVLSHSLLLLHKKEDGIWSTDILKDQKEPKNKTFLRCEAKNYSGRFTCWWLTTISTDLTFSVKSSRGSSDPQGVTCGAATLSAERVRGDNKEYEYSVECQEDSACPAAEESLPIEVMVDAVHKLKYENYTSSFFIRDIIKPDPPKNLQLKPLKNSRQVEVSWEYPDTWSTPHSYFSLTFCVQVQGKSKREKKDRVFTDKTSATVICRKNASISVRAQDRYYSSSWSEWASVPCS
Nature of the assay: cell-based or functional assay.

Assay [3] addresses T2, Human IL-23. As to the kind of experiment: cell-based or functional assay. This is another data set of the same source.
In assay [4] the target is T3, Human IL-18 (human, UniProt Q14116 37-193).
T3 construct: Recombinant, made in-house; In the BLI assay the loaded cytokine was captured on anti-Penta His sensors, so a His tag is implied but not described; also called recombinant human IL-18; interleukin 18
T3 sequence: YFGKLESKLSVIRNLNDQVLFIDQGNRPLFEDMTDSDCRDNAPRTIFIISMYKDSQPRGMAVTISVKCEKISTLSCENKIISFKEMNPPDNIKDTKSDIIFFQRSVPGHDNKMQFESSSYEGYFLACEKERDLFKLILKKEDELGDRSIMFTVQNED
As to the kind of experiment: SPR (Biacore), antibody captured on Protein A/G, cytokine as analyte, 25 C. As to the method:
(§1) A heterodimeric bsAb, alongside anti-IL-18 and anti-IL-23 common light chain control bispecific antibodies, were assessed for binding to human and cyno IL-18 and IL-23, using the Biacore 8K and T200 (Cytiva) surface plasmon resonance (SPR) instruments. All reagents were generated recombinantly in-house with the exception of Rhesus monkey IL-18 which was purchased from R&D systems (Cat #2548-RM-025/CF). Rhesus and cynomolgus monkey amino acid sequences are identical. Therefore, the protein will be referred to as cynomolgus monkey IL-18.
(§2) Heterodimeric bsAb, anti-IL-18 and anti-IL-23 common light chain bispecific control molecules were assessed for binding to recombinant human and cynomolgus monkey IL-18 and IL-23 using the Biacore 8K and T200 (Cytiva) SPR instruments. The antibodies were captured onto Protein A/G, which was immobilised onto flow cell 2 of 8 channels (Biacore 8K) or flow cells 2, 3 and 4 (Biacore T200) of a CM5 series S sensor chip by primary amine coupling. The IL-18 or IL-23 analytes were passed over the captured antibodies at varying concentrations between 0.04-25 nM. The association phase was for 240 seconds at 30 μl/min, followed by a dissociation step of up to 1200 seconds. A 0 nM (i.e., buffer alone) injection was used to double reference the binding curves. Regeneration of the chip surface between cycles was carried out using 50 mM NaOH. The assay was run at 25° C. in HBS-EP⁺ buffer. Biacore 8K control software version 3.0 was used to run the experiment. Data was analysed using Biacore 8K Insight evaluation software version 3.0. Biacore T200 control software version 1.0 was used to run the experiment. Data was analysed using Biacore T200 evaluation software version 2.0. Affinities and kinetics were determined using the 1:1 kinetic fit inherent to the software where possible. All affinity values generated using both instruments were combined to determine geometric mean values.

Assay [5] addresses T2, Human IL-23. Nature of the assay: SPR (Biacore), antibody captured on Protein A/G, cytokine as analyte, 25 C, 1:1 fit, n=1. As to the method: as §1, §2
On the technique in general: SPR reads the build-up and loss of mass on a sensor chip optically.

The target in assay [6] is T3, Human IL-18. Nature of the assay: cell-based or functional assay.

Here are results for 3 molecules from patent publication US20260226152A1 (GlaxoSmithKline, published 2026).

In general, Kd refers to the constant that tells how readily two partners part at equilibrium. High values mean a looser complex, low ones a tighter complex.

B1: Ustekinumab (antibody, V domains shown)
VH: EVQLVQSGAEVKKPGESLKISCKGSGYSFTTYWLGWVRQMPGKGLDWIGIMSPVDSDIRYSPSFQGQVTMSVDKSITTAYLQWNSLKASDTAMYYCARRRPGQGYFDFWGQGTLVTVSS
VL: DIQMTQSPSSLSASVGDRVTITCRASQGISSWLAWYQQKPEKAPKSLIYAASSLQSGVPSRFSGSGSGTDFTLTISSLQPEDFATYYCQQYNIYPYTFGQGTKLEIK
Take B1: in assay [1], the “IC50 (pM), inhibition of IL-12-induced IFNγ secretion by NK-92 cells” value came to 875 pM and the “IC50 (ug/mL), inhibition of IL-12-induced IFNγ secretion by NK-92 cells” value came to 0.13 µg/mL.

B2: IL-23 control 3 (antibody, V domains shown)
VH: QVQLVQSGAEVKKPGASVKVSCKASGYIFITYWMTWVRQAPGQGLEWMGQIFPASGSADYNEKFEGRVTMTTDTSTSTAYMELRSLRSDDTAVYYCARGGGGFAYWGQGTLVTVSS
VL: DIQMTQSPSSLSASVGDRVTITCRTSENIYSYLAWYQQKPGKAPKLLIYNAKTLAEGVPSRFSGSGSGTDFTLTISSLQPEDFATYYCQHHYGIPFTFGQGTKVEIK
notes: Anti-IL-23 (tildrakizumab) plus Het-mAb Fc mutations of Heterodimeric bsAbs 1-4 and half-life extending (YTE) mutations; also called tildrakizumab variable domains
Turning to B2, in assay [2], the “IC50 Parent (pM), inhibition of IL-23-induced pSTAT3 in T cells of human whole blood (run with Heterodimeric bsAb-3)” value came out at 637 pM. Further, in assay [3], the “IC50 Parent (pM), inhibition of human IL-23-induced mouse IL-17A secretion in mouse splenocytes (run with Heterodimeric bsAb-3)” value amounted to 687 pM. The binding result in assay [4] is listed as “no binding (tested: 0.04-25 nM analyte)”. The same molecule gave a Kd in assay [5] of 0.576 nM.

B3: IL-23 control 2 (antibody, V domains shown)
VH: QVQLVQSGAEVKKPGSSVKVSCKASGYTFTDQTIHWMRQAPGQGLEWIGYIYPRDDSPKYNENFKGKVTITADKSTSTAYMELSSLRSEDTAVYYCAIPDRSGYAWFIYWGQGTLVTVSS
VL: DIQMTQSPSSLSASVGDRVTITCKASRDVAIAVAWYQQKPGKVPKLLIYWASTRHTGVPSRFSGSGSRTDFTLTISSLQPEDVADYFCHQYSSYPFTFGSGTKLEIK
notes: Anti-IL-23 (risankizumab) mAb plus Het-mAb Fc mutations of Heterodimeric bsAbs 1-4 and silencing (LAGA) mutations; also called risankizumab variable domains
Consider B3, for which the “pIC50 (GeoMean), neutralisation of human IL-18-induced IFNγ secretion by KG-1 cells” value in assay [6] was < 8.48. For the same molecule, in assay [2], the “IC50 Parent (pM), inhibition of IL-23-induced pSTAT3 in T cells of human whole blood (run with Heterodimeric bsAb-1)” value turned out to be 282 pM and the “IC50 Parent (pM), inhibition of IL-23-induced pSTAT3 in T cells of human whole blood (run with Heterodimeric bsAb-2)” value was 286 pM. In addition, in assay [3], the “IC50 Parent (pM), inhibition of human IL-23-induced mouse IL-17A secretion in mouse splenocytes (run with Heterodimeric bsAb-1)” value was found to be 60 pM and the “IC50 Parent (pM), inhibition of human IL-23-induced mouse IL-17A secretion in mouse splenocytes (run with Heterodimeric bsAb-2)” value was found to be 53.3 pM. Also, the binding result in assay [4] was “no binding (tested: 0.04-25 nM analyte)”. Also, binding in assay [5] was put at a Kd of 0.163 nM.
